How the values were obtained:
[1] = target: Murine FGFR-3(IIIc) expressed on L6 cells (murine) (UniProt Q61851); test: fluorescent antibody 200 nM on FGFR-3 transfected L6 cells, 1 h at 4° C., Odyssey imaging
[2] = target: Murine FGFR-3(IIIc) expressed on L6 cells (murine) (UniProt Q61851); test: fluorescent antibody 200 nM on FGFR-3 transfected L6 cells, 1 h at 37° C., Odyssey imaging
[3] = target: Murine FGFR-3(IIIc) expressed on L6 cells (murine) (UniProt Q61851); test: fluorescent antibody 200 nM on FGFR-3 transfected L6 cells, 1 h at 37° C. followed by acid stripping, Odyssey imaging
[4] = target: Murine FGFR-3(IIIc) expressed on L6 cells (murine) (UniProt Q61851); test: fluorescent antibody 200 nM on FGFR-3 transfected L6 cells, 1 h at 4° C. followed by acid stripping, Odyssey imaging

Sequence of Murine FGFR-3(IIIc) expressed on L6 cells (murine) (Q61851 21-801): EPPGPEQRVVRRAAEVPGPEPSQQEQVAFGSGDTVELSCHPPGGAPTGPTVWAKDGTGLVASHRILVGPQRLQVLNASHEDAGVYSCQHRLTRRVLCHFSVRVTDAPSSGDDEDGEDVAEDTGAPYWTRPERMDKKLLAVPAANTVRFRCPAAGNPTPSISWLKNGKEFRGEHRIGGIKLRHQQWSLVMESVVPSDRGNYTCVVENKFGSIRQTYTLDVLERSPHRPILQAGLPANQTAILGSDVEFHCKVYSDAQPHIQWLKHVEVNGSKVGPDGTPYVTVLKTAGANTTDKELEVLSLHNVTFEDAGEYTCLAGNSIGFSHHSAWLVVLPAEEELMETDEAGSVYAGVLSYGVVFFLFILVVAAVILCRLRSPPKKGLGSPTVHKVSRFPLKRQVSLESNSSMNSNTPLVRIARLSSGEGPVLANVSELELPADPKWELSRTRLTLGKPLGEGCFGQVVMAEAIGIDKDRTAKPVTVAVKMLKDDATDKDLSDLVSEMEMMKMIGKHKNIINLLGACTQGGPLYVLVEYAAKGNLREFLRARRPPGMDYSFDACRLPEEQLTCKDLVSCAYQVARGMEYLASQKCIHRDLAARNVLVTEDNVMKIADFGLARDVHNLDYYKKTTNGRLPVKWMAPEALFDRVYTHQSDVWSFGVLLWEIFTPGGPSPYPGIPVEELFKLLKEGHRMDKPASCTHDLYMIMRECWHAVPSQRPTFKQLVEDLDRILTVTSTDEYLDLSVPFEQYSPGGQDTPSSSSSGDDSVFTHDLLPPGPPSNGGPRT

relative fluorescent intensity [1]: 1.5
relative fluorescent intensity [2]: 1.1
relative fluorescent intensity [3]: 1
relative fluorescent intensity [4]: 0.6
Substance: isotype-matched non-specific control antibody
